The target of the assay is MAP3K11 (UniProt Q16584).
Sequence of MAP3K11 (Q16584 whole entry, looked up): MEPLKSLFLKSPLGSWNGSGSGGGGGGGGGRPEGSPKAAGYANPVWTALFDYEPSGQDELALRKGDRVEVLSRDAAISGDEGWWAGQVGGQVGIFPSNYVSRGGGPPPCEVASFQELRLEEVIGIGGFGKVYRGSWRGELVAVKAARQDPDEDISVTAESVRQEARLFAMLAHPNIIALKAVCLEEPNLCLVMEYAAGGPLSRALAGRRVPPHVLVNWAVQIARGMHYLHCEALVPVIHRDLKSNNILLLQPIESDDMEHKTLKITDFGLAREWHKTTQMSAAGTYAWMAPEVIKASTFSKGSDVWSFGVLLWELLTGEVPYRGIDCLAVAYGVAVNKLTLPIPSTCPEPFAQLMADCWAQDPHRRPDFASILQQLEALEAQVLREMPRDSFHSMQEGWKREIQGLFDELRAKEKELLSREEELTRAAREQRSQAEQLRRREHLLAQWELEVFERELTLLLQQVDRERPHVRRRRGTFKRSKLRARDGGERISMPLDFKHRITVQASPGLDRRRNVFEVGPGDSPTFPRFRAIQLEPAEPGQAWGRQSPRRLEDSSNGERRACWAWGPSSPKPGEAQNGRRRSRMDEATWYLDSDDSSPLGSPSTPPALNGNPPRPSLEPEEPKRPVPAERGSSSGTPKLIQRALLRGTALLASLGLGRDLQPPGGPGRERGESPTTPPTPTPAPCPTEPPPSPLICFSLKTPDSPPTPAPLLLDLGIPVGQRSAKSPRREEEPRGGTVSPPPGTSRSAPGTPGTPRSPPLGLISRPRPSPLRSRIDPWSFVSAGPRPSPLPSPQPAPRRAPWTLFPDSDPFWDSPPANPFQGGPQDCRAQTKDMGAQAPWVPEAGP

Sequence of Cell division control protein 42 homolog (Homo sapiens), P60953 T17N (P60953 whole entry T17N): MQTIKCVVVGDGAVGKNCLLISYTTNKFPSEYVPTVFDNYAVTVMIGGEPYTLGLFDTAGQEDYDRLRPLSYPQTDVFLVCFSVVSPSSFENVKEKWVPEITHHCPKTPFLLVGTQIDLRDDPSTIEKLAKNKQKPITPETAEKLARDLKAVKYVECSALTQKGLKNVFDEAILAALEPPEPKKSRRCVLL
Sequence of Cell division control protein 42 homolog (Homo sapiens), P60953 G12V (P60953 whole entry G12V): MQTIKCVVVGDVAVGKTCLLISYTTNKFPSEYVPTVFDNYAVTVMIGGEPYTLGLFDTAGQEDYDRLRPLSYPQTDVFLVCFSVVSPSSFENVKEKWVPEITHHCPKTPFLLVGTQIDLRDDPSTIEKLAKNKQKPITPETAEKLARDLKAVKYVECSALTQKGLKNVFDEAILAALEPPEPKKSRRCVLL

Take “Cell division control protein 42 homolog (Homo sapiens), P60953 G12V”: the “effect of a mutation on the interaction” value was “decreasing interaction”.
In the case of “Cell division control protein 42 homolog (Homo sapiens), P60953 T17N”, the “effect of a mutation on the interaction” value is reported as “disrupting interaction”.

These data come from IntAct's records for PubMed 20890305.
